For one substance, FCRL4 mRNA (microarray) in anti-IgM + CpG stimulated B cells, 6 h with gp120 results are on record in PMC3870659.

This experiment has as its target integrin α4β7 on freshly isolated human primary B cells (human (endogenous in primary B cells)) (UniProt P13612).
UniProt P13612, sequence (P13612 34-1032, chain 1 of 2): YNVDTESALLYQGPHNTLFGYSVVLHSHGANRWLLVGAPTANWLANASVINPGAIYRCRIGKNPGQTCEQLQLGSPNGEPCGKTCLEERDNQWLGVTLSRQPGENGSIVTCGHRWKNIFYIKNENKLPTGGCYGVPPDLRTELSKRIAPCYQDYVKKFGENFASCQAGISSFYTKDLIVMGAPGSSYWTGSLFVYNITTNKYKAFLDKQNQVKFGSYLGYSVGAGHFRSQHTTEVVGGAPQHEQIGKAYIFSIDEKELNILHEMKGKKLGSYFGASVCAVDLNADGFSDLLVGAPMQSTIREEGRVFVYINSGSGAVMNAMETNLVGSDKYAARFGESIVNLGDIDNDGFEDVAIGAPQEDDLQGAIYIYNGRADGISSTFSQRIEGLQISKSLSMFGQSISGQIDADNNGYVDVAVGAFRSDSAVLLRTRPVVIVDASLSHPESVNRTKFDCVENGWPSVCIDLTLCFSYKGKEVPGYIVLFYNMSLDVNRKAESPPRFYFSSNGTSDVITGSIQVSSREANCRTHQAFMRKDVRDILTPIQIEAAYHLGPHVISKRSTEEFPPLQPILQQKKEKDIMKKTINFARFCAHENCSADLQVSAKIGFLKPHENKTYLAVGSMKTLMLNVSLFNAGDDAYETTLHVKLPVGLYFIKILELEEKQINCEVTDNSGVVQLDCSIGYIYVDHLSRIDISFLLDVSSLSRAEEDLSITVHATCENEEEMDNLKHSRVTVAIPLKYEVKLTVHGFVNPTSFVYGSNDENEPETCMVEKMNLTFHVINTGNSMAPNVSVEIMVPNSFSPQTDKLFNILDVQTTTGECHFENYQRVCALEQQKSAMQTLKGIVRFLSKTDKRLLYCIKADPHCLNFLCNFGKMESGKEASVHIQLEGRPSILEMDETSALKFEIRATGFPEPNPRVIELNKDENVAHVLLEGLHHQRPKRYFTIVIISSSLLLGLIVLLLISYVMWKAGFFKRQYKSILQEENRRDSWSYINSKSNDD
UniProt P13612, sequence (P26010 20-798, chain 2 of 2, further chain): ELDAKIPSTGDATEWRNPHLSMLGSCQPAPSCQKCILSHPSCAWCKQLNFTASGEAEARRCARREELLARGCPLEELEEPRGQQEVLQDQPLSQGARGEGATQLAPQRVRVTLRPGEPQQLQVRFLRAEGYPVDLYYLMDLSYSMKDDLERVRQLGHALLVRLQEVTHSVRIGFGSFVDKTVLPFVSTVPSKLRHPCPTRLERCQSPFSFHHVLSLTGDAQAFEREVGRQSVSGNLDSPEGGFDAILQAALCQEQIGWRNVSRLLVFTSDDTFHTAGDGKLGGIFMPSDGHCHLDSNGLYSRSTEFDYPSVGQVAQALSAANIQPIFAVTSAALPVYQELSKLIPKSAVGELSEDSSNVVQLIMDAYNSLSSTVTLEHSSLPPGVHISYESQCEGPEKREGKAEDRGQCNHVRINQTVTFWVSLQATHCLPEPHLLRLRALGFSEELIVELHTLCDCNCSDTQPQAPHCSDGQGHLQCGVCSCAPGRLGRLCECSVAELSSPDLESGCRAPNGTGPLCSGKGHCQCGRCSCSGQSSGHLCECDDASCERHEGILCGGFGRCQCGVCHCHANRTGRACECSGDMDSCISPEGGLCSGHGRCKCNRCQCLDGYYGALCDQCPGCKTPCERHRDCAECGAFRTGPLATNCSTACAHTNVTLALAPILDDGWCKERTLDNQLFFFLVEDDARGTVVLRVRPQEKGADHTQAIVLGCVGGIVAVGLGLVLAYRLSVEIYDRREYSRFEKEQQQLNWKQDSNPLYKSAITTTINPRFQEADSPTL

Regarding “R66M gp120 (HIV-1 envelope protein gp120 of the early viral isolate R66M, subtype A/C) (natural protein)”, the FCRL4 mRNA (microarray) in anti-IgM + CpG stimulated B cells, 6 h with gp120 was determined as 8 fold.
